# Assay results as given in IntAct's records for PubMed 19666511.
# B1: GTP-binding protein YPT32/YPT11 (Saccharomyces cerevisiae), P51996 (parent)
# chain: MSNEDYGYDYDYLFKIVLIGDSGVGKSNLLSRFTTDEFNIESKSTIGVEFATRTIEVENKKIKAQIWDTAGQERYRAITSAYYRGAVGALIVYDISKSSSYENCNHWLTELRENADDNVAVGLIGNKSDLAHLRAVPTDEAKNFAMENQMLFTETSALNSDNVDKAFRELIVAIFQMVSKHQVDLSGSGTNNMGSNGAPKGPTISLTPAPKEDKKKKSSNCC
# partner: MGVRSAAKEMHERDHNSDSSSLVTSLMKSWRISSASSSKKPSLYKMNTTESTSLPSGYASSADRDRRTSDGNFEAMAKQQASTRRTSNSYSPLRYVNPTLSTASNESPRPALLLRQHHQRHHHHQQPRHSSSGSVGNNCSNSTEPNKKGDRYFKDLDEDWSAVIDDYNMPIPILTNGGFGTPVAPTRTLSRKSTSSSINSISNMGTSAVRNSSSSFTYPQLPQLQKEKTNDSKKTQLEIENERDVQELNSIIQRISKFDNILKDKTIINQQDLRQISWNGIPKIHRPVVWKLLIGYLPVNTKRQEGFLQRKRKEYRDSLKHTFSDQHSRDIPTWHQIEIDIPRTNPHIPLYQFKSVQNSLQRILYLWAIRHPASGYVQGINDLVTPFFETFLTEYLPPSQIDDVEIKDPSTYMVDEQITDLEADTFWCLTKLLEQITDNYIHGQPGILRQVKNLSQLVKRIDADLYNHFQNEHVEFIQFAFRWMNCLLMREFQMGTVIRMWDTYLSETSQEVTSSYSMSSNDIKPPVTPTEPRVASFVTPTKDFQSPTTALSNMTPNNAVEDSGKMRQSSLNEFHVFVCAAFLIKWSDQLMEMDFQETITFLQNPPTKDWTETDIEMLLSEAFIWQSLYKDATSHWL
# Variants of: B1
# Settings: with gyp1_yeast GYP1, Q08484
row,Variant,effect of a mutation on the interaction
1,S27N,disrupting interaction
